Target: T1, MPK19 (Arabidopsis, UniProt Q9LUC3 1-598)
T1 construct: MPK19, MAPK family kinase, Arabidopsis; fusion protein spotted on the functional protein microarray; source: printed on protein microarrays (AtPMA-5000 and AtPMA-10000)
T1 sequence (looked up): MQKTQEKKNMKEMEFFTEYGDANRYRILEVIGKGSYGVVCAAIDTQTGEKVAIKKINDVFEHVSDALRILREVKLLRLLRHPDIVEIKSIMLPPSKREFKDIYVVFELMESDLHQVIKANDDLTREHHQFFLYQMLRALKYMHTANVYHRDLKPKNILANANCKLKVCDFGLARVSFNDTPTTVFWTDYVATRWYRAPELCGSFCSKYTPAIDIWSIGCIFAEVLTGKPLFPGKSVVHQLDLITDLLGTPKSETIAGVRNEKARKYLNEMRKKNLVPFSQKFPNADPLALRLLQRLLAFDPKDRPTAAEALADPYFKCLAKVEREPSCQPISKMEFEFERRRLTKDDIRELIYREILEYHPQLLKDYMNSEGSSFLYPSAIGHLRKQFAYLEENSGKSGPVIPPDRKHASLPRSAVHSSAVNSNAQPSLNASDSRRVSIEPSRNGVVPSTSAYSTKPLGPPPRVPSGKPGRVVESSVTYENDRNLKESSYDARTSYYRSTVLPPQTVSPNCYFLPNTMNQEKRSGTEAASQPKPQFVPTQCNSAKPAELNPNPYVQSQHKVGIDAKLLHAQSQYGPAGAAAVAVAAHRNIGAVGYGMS
Assay: peptide or protein array; functional protein microarrays (AtPMA-5000 and AtPMA-10000, about 15,000 Arabidopsis proteins) probed with 150 ul purified ILK1-V5 in solution for 1.5 h with 1% BSA, 5 mM MgCl2 and MnCl2; detected with Cy5-conjugated anti-V5 antibody; three probe arrays against two control arrays without probe; one-sided t-test, 5% significance, FDR
Details: both partners purified

- binding result: binds
B1: ILK1-V5 (integrin-linked kinase 1, Arabidopsis) (enzyme, UniProt F4IS56 1-479, looked up)
chain: MENITAQLKRGISRQFSTGSIRRTLSRQFTRQSSLDPRRTNMRFSFGRQSSLDPIRRSPDSSKSDDEPHMSVPENLDSTMQLLFMASKGDVRGIEELLDEGIDVNSIDLDGRTALHIAACEGHLGVVKALLSRRANIDARDRWGSTAAADAKYYGNLDVYNLLKARGAKVPKTRKTPMTVSNPREVPEYELNPLEVQVRKSDGISKGAYQVAKWNGTRVSVKILDKDSYSDPERINAFRHELTLLEKVRHPNVIQFVGAVTQNIPMMIVVEYNPKGDLSVYLQKKGRLSPSKALRFALDIARGMNYLHECKPDPIIHCDLKPKNILLDRGGQLKISGFGMIRLSKISQDKAKVANHKAHIDLSNYYIAPEVYKDEIFDLRVDAHSFGVILYEITEGVPVFHPRPPEEVARMMCLEGKRPVFKTKSRSYPPDIKELIEKCWHPEAGIRPTFSEIIIRLDKIVANCSKQGWWKDTFKFPWK
notes: ILK1, integrin-linked kinase 1, a pseudokinase of the Raf-like MAP3K family, Arabidopsis; also called purified ILK1-V5 protein; source: purified as described previously (Brauer et al., 2014, 2016); purity validated by mass spectrometry

From article PMC9403797, “Back From the Dead: The Atypical Kinase Activity of a Pseudokinase Regulator of Cation Fluxes During Inducible Immunity” (Frontiers in Plant Science, 2022)
